Reference: US20230009539A1 (CLEVELAND CLINIC FOUNDATION, published 2023)

Target: T1, IKKi (endogenous, MEFs) (mouse (MEFs), UniProt Q9R0T8 1-717)
T1 sequence (looked up): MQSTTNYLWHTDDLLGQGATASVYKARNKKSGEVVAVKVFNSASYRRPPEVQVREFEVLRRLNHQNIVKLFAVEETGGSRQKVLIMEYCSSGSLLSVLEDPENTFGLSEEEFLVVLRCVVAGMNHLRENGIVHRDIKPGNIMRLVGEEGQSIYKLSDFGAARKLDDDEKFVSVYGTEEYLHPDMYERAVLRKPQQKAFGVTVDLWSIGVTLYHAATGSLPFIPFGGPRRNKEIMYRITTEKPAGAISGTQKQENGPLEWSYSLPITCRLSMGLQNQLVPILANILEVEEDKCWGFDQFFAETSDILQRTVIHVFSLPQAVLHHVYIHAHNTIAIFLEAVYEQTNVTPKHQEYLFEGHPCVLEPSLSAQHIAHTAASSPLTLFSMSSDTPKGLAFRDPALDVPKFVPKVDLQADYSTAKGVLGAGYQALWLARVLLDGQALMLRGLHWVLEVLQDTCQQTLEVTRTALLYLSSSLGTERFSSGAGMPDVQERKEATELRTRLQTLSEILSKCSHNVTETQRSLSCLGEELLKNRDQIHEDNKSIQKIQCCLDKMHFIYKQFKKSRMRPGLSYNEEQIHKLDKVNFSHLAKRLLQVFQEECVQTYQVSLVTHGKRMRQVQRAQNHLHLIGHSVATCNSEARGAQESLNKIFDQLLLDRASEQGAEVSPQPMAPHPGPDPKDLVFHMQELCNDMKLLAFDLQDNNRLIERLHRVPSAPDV
Assay: anti-FLAG immunoprecipitation from cytoplasmic and nuclear fractions of reconstituted MEFs (FIG. 5G)
Protocol: Immunoblot, immunoprecipitation and nuclear fractionation: Cell were harvested and lysed on ice in a lysis buffer containing 0.5% Triton X-100, 20 mM Hepes pH 7.4, 150 mM NaCl, 12.5 mM-glycerophosphate, 1.5 mM MgCl2, 10 mM NaF, 2 mM dithiothreitol, 1 mM sodium orthovanadate, 2 mM EGTA, […], and 1 mM phenylmethylsulfonyl fluoride for 20 minutes, followed by centrifuging at 12,000 rpm for 15 minutes to extract clear lysates. For immunoprecipitation, cell lysates were incubated with 1 μg of antibody and A-sepharose beads at 4 degree overnight. After incubation, the beads were washed four times with lysis buffer and the precipitates were eluted with 2× sample buffer. Elutes and whole cell extracts were resolved on SDS-PAGE followed by immunobloting with antibodies. Nuclear fractionation was performed using NUCLEI EZ PREP kit purchased from Sigma in accordance with the manufacturer's instruction. Nuclear pellets were suspended in 30p1 of nuclear extraction buffer (20 mM HEPES, 400 mM NaCl, 1 mM EDTA, 1 mM EGTA in water, pH 7.9) containing freshly prepared 1 mM DTT and protease inhibitor cocktail. After 1.5 h incubation on ice bath with intermittent vortexing, extracts were centrifuged and supernatant was collected for immunoprecipitation.

- binding result: binds
B1: FLAG-tagged mouse wild-type Act1 (WT) (other, UniProt Q8N7N6 1-555, looked up)
chain: MNRSIPVEVDESEPFPSQLLKPIPEYSPEEELEPPAPNTRNMAPSSLSVLQCPPLKLANHQPVSQQVTCLRAKVLEEGEASFFRRHPELGKDISSCSSGASEPESELGALPPEHRFTLTEKRNRWLGSQLSAASPDTGHESDKSDPSLPNALADSFSGGQEMMPRPRPRPGPHRHRAAPDVPTIDTGYDSQPQDVLGIRQLERPLPLTSSCYLQDLPGPLRSRELPPQFELERYPMNAQLLPPHPSPQAPWNCQYYCPGGPYHHQVPHGHGYPPAAAYQQVLQPALPGQVLPGARARGPRPVQKVILNDSSPQDQEERPAQRDFSFPRLPRDQLYRPPSNGVEAPEESLDLPAELRPHGPQAPSLAAVPRPPSNPLARGTLRTSNLPEELRKVFITYSMDTAMEVVKFVNFLLVNGFQTAIDIFEDRIRGIDIIKWMERYLRDKTVMIIVAISPKYKQDVEGAESQLDEDEHGLHTKYIHRMMQIEFISQGSMNFRFIPVLFPNAKKEHVPTWLQNTHVYSWPKNKKNILLRLLREEEYVAPPRGPLPTLQVVPL
notes: also called flag-tagged mAct1; flag-Act1; not shown: FLAG tag
